Assay results published in patent US20130243795A1 (Janssen / Centocor, published 2013).
Residue numbers refer to the chain shown, from its start. Read-outs that look alike come from different tables or passages of the source. One block for each binder: values may come before it.

Assays:
[1] = target: T1, Human CD27 ECD truncated (ECD 1-121, cleavage site, His6) (human); assay: ProteOn SPR, culture supernatants
T1 construct: also called human CD27 ECD with His Tag; CD27-His
T1 chain: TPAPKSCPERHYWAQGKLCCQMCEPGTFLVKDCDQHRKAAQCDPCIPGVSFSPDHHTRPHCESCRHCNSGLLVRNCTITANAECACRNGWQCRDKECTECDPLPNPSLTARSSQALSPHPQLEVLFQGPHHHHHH

[2] = target: T1, Human CD27 ECD truncated (ECD 1-121, …); assay: ProteOn SPR, culture supernatants
[3] = target: T2, Human CD27, full length on the cell surface (human, UniProt P26842 21-260); assay: cell-based or functional assay
T2 sequence (P26842 21-260 H233R): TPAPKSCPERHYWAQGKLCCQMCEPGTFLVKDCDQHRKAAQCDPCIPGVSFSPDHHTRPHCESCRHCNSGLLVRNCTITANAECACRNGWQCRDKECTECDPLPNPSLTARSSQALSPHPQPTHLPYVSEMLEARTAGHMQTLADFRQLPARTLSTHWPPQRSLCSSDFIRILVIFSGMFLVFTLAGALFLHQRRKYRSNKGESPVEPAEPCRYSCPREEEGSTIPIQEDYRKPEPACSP

[4] = target: T3, Human CD27 ECD, monomeric soluble (construct limits not stated) (human, UniProt P26842 20-191); assay: Biacore SPR, purified mAb, CD27 ECD
T3 construct: extracellular domain; target of the Biacore assays; also called monomeric soluble CD27; CD27-His
T3 sequence (P26842 20-191): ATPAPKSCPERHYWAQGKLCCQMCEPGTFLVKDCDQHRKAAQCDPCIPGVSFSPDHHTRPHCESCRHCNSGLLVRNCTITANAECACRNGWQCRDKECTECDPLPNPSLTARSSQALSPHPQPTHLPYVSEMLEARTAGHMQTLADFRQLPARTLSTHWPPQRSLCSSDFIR

[5] = target: T1, Human CD27 ECD truncated (ECD 1-121, …); assay: ELISA signal for binding to CD27, initial small culture supernatants
[6] = target: T2, Human CD27, full length on the cell …; assay: cell-based or functional assay; remark: listed apart in the source
[7] = target: T3, Human CD27 ECD, monomeric soluble …; assay: Biacore SPR, purified mAb
[8] = target: T4, Human CD27 ECD (ECD 1-173, His6) (human, UniProt P26842 21-193, biotinylated on amine residues (NHS-ester) where used biotinylated); assay: single point Fab ELISA
T4 construct: also called biotinylated human CD27 ECD

[9] = target: T1, Human CD27 ECD truncated (ECD 1-121, …); assay: ProteOn SPR, culture supernatants

- Kd [1]: 0.54 nM
- fold decrease in KD against the parental mAb M159 [2]: 4 fold
B1: M149 (antibody, human IgG4, V domains shown)
VH: QVQLVQSGAEVKKPGASVKVSCKASGYAFSSSWMNWVRQAPGQGLEWMGRIYPGDGDTNYNGKFKGRVTMTRDTSTSTVYMELSSLRSEDTAVYYCARSDYYGDYGFAYWGQGTLVTVSS
VL: DIQMTQSPSSLSASVGDRVTITCKASQSVDYAGDSFMNWYQQKPGKAPKLLIYAASNLESGVPSRFSGSGSGTDFTLTISSLQPEDFATYYCQQSNEDPYTFGQGTKVEIK
notes: also called H25,L219

- Kd [1]: 0.39 nM
- fold decrease in KD against the parental mAb M159 [2]: 6 fold
B2: M157 (antibody, human IgG4, V domains shown)
VH: B1 VH with P53Q
VL: B1 VL with F36Y
notes: also called H197,L220

- Kd [1]: 0.37 nM
- fold decrease in KD against the parental mAb M159 [2]: 6 fold
B3: M155 (antibody, human IgG4, V domains shown)
VH: B1 VH
VL: B1 VL with G33H, D34E
notes: also called H25,L217

- NFkB IC50 [3]: 0.041 nM
- Kd [4]: 0.0241 nM
- ELISA signal [5]: 0.96
B4: M489 (antibody, IgG1, V domains shown)
VH: QVQLVESGGGLVKPGGSLRLSCAASGFTFSSYGMSWIRQAPGKGLEWVSYIDEGGGQTIYPDSVKGRFTISRDNAKNSLYLQMNSLRAEDTAVYYCARHRGNPFDYWGQGTLVTVSS
VL: DIQMTQSPSSLSASVGDRVTITCRASKSVSLDRWSFMHWYQQKPGKAPKLLIYLASNLESGVPSRFSGSGSGTDFTFTISSLQPEDIATYYCQHSRELPWTFGQGTKVEIK
notes: also called H227/L250

- NFkB IC50 [3]: 0.023 nM
- Kd [4]: 0.0394 nM
- ELISA signal [5]: 0.92
B5: M488 (antibody, IgG1, V domains shown)
VH: B4 VH
VL: B4 VL with L31E, D32G, L54V, N57R
notes: also called H227/L249

- NF-kB Assay IC50 [6]: 0.42 nM
- Kd [7]: 0.105 nM
- koff [7]: 7.6e-05 s⁻¹
- kon [7]: 480000 M⁻¹ s⁻¹
B6: M694 (antibody, V domains shown)
VH: B4 VH
VL: B4 VL with L31E, D32G, L54V, N57R
notes: also called single-gene DNA ID 694

- NF-kB Assay IC50 [6]: 0.26 nM
- Kd [7]: 0.213 nM
- koff [7]: 0.000124 s⁻¹
- kon [7]: 585000 M⁻¹ s⁻¹
B7: M707 (antibody, V domains shown)
VH: B4 VH with Q1E, V5L, K13Q, G33T, I37V, Y50A, E53H, I59L, A75S, S78T
VL: B4 VL with L31H, D32V, F77L, I87F
notes: also called single-gene DNA ID 707

- NF-kB Assay IC50 [6]: 0.33 nM
- Kd [7]: 0.057 nM
- koff [7]: 2.1e-05 s⁻¹
- kon [7]: 370000 M⁻¹ s⁻¹
B8: M696 (antibody, V domains shown)
VH: B4 VH
VL: B4 VL with L31H, D32V, N57K
notes: also called single-gene DNA ID 696

- binding result [8]: binds
B9: F302 (Fab, V domains shown)
VH: EVQLLESGGGLVQPGGSLRLSCAASGFTFSSYTMSWVRQAPGKGLEWVSYISSGGGNTYYPDSVKGRFTISRDNSKNTLYLQMNSLRAEDTAVYYCARHRGNPFDYWGQGTLVTVSS
VL: B4 VL with D32I, F77L, I87F
notes: also called H39/L179

- NFkB IC50 [3]: 0.004 nM
- Kd [4]: 0.0742 nM
- ELISA signal [5]: 0.77
B10: M501 (antibody, IgG1, V domains shown)
VH: B4 VH with G33S, Y50H, E53A, Q57R, I59W
VL: B4 VL
notes: also called H231/L250

- NFkB IC50 [3]: 0.019 nM
- Kd [4]: 0.0417 nM
- ELISA signal [5]: 0.93
B11: M427 (antibody, IgG1, V domains shown)
VH: B4 VH
VL: B4 VL with L31A, D32W, R33G, W34Y, L54V, N57R
notes: also called H227/L244; C27H227/C27L244

- NFkB IC50 [3]: 0.006 nM
- Kd [4]: 0.171 nM
- ELISA signal [5]: 0.69
B12: M526 (antibody, IgG1, V domains shown)
VH: B4 VH with E53R, Q57V
VL: B4 VL with L31E, D32G, L54V, N57R
notes: also called H222/L249

- binding result [8]: binds
B13: F298 (Fab, V domains shown)
VH: B9 VH with Y50A, S52D, S53G, N57A
VL: B4 VL with L31T, D32S, R33G, W34Y, F77L, I87F
notes: also called H191/L40

- NF-kB Assay IC50 [6]: 0.25 nM
- Kd [7]: 0.202 nM
- koff [7]: 0.00017 s⁻¹
- kon [7]: 510000 M⁻¹ s⁻¹
B14: M695 (antibody, V domains shown)
VH: B4 VH with G33S, E53A, Q57F
VL: B4 VL with L31E, D32G, L54V, N57R
notes: also called single-gene DNA ID 695

- NF-kB Assay IC50 [6]: 0.26 nM
- Kd [7]: 0.35 nM
- koff [7]: 0.000225 s⁻¹
- kon [7]: 643000 M⁻¹ s⁻¹
B15: M708 (antibody, V domains shown)
VH: B9 VH with Y50V, S52D, S53H, N57S, Y59H
VL: DIQMTQSPSSLSASVGDRVTITCRASKSVSTSGYSFMHWYQQKPGKAPKLLIYVGSRLDYGVPSRFSGSGSGTDFTLTISSLQPEDFATYYCQHSRELPWTFGQGTKVEIK
notes: also called single-gene DNA ID 708

- NFkB IC50 [3]: 0.042 nM
- Kd [4]: 0.0304 nM
- ELISA signal [5]: 0.86
B16: M429 (antibody, IgG1, V domains shown)
VH: B4 VH
VL: B4 VL with L31H, D32V, N57K
notes: also called H227/L245

- NFkB IC50 [3]: 0.015 nM
- Kd [4]: 0.142 nM
- ELISA signal [5]: 0.77
B17: M492 (antibody, IgG1, V domains shown)
VH: B4 VH with G33S, E53A, Q57F
VL: B4 VL with L31E, D32G, L54V, N57R
notes: also called H228/L249

- NFkB IC50 [3]: 0.014 nM
- Kd [4]: 0.145 nM
- ELISA signal [5]: 0.85
B18: M493 (antibody, IgG1, V domains shown)
VH: B4 VH with G33S, E53A, Q57F
VL: B4 VL
notes: also called H228/L250

- binding result [8]: binds
B19: F297 (Fab, V domains shown)
VH: B9 VH with Y50T, S52D, S53R, N57S, Y59W
VL: B15 VL with V54L, G55A, R57N, D59E, Y60S
notes: also called H190/L40

- binding result [8]: binds
B20: F299 (Fab, V domains shown)
VH: B9 VH with Y50V, S52D, S53H, N57S, Y59H
VL: B15 VL with V54L, G55A, R57N, D59E, Y60S
notes: also called H192/L40

- Kd [9]: 0.025 nM
B21: M596 (antibody, V domains shown)
VH: EVQLVQSGAEVKKPGESLKISCKGSGYAFSSSWMNWVRQMPGKGLEWMGRIYAGDGDTNYSPSFQGQVTISADKSISTAYLQWSSLKASDTAMYYCARSDYYGDYGFAYWGQGTLVTVSS
VL: DIVMTQSPDSLAVSLGERATINCKASQSVDYAGDSWMNWYQQKPGQPPKLLIYTASNLESGVPDRFSGSGSGTDFTLTISSLLAEDVAVYYCQQSNEDPYTFGQGTKLEIK
notes: IgG; subclass not restated (path 1 mAbs were human IgG1/kappa); also called H239/L257

- Kd [9]: 0.03 nM
B22: M680 (antibody, V domains shown)
VH: B21 VH with S61A
VL: B21 VL with W36F, T54A, L83Q
notes: IgG; subclass not restated; also called H260/L255

- Kd [9]: 0.028 nM
B23: M703 (antibody, V domains shown)
VH: B21 VH with G56A, N59A
VL: B21 VL with D34E, W36F, T54A, L83Q
notes: IgG; subclass not restated; also called H270/L267

- Kd [9]: 0.013 nM
B24: M706 (antibody, V domains shown)
VH: B21 VH with G56A, S61A
VL: B21 VL with D34E, W36F, T54A, L83Q
notes: IgG; subclass not restated; also called H272/L267

- Kd [9]: 0.049 nM
B25: M600 (antibody, V domains shown)
VH: B21 VH
VL: B21 VL with W36F, T54A, L83Q
notes: IgG; subclass not restated; also called H239/L255

- Kd [9]: 0.053 nM
B26: M678 (antibody, V domains shown)
VH: B21 VH with N59A
VL: B21 VL with W36F, T54A, L83Q
notes: IgG; subclass not restated; also called H259/L255
